Experimental data published in patent US20090325867A1, “RECEPTOR-SPECIFIC TUMOUR NECROSIS FACTOR-RELATED APOPTOSIS-INDUCING LIGAND (TRAIL) VARIANTS” (MEDICAL RESEARCH COUNCIL, priority 2005, published 2009).
“Also recorded” adds a separate entry of the source.

Columns and labels:
Jurkat cells [1] = assay: Caspase-8 and -3 processing by Western blot in Jurkat cells; type: cell-based; settings: FIG. 1D
Description: (§1) Cells were also exposed to HGS-ETR1 or HGSETR2 (1 μg ml^−1). C: Ramos or Jurkat cells were pre-incubated for 30 min either alone or with TRAIL-R1 blocking Ab or TRAIL-R2 neutralizing Ab (5 μg ml^−1). […] D: Ramos and Jurkat cells were exposed to wt TRAIL or TRAIL mutants as described above and processing of caspase-3 and -8 determined by Western blot analysis. The asterisk indicates a non-specific band. The lower panel of the blot for detection of the caspase-8 p18 subunit was exposed for twice as long as the upper panel. Apoptosis was assessed by phosphatidylserine externalization and results expressed as the Means±SEM of at least 3 separate determinations.
(§2) Apoptosis was quantified by phosphatidylserine (PS) externalization in the presence of propidium iodide as described (MacFarlane et al., 2002 ibid.). Samples for Western blot analysis were prepared and caspase processing detected as described (Inoue et al., 2004 ibid.; MacFarlane et al., 2005 ibid.).
(§3) To confirm that the mutants were inducing apoptosis, we examined their effects on the processing of caspase-8, the apical caspase in death receptor-induced apoptosis and caspase-3, an effector caspase.

primary CLL cells = assay: Apoptosis in freshly isolated CLL cells after depsipeptide; type: cell-based, human; settings: depsipeptide 10 nM 16 h, then 6 h ligand or antibody, FIG. 2C
Description: After exposure of the cells for 30 min, DISC complexes were isolated and analyzed for the indicated proteins by Western blotting. To provide an unstimulated receptor control (u/s), biotinylated wt or mutant TRAIL was added to lysate from untreated cells. C: Freshly isolated cells from patients with CLL were incubated for 16 h either alone or in the presence of depsipeptide (10 nM). […] The different symbols used indicate data from six individual patients and the solid line indicates the Mean.
Ramos, an Epstein-Barr virus-negative Burkitt's lymphoma cell line, and Jurkat T cells (clone E6-1) were cultured as described (MacFarlane et al (2005 Cell Death and Differentiation vol 12 pages 773-782)). Blood samples were obtained from CLL patients, with patient consent and local ethical committee approval and CLL cells purified as described (MacFarlane et al (2002 Oncogene 21, 6809-6818). Cells were incubated for 16 h with depsipeptide (10 nM), provided by Dr. E. Sausville (NCI, USA). Cells were then cultured for a further 6 h with either HGSETR1 or HGS-ETR2, agonistic mAbs to TRAIL-R1 or -R2, respectively (Human Genome Sciences, Rockville, Md.), His-TRAIL-LE (a recombinant TRAIL with low endotoxin—Alexis Corporation, Nottingham, UK), His-TRAIL, a similar form of human recombinant TRAIL (MacFarlane et al (1997 J Biol Chem 272, 25417-25420)) but not further purified to reduce endotoxin levels or a mutant form of His-TRAIL as described (MacFarlane et al., 2005 ibid.). Cell lines were also pre-incubated for 30 min with a TRAIL-R1 blocking Ab and a TRAIL-R2 neutralizing Ab from Alexis and R&D systems, respectively, prior to exposure to TRAIL. Freshly isolated cells from patients with MCL were isolated, purified and incubated with different forms of TRAIL as described above for CLL cells. Samples were either analyzed immediately for apoptosis or stored at −80° C. for subsequent Western blotting. Other methods and reagents were as described (Inoue (2004 Cell Death Differ 11 Suppl 2, S193-206); MacFarlane et al., 2005 ibid).
as §2

Ramos cells = assay: Caspase-8 and -3 processing by Western blot in Ramos cells; type: cell-based; settings: FIG. 1D
Description: as §1, §2, §3

Jurkat cells [2] = assay: Apoptosis by phosphatidylserine (PS) externalization in Jurkat cells; type: cell-based; settings: for inhibition of induced apoptosis by TRAIL-R1 blocking Ab: 30 min pre-incubation with Ab (5 μg ml^−1); for ability to induce apoptosis in Jurkat cells (in words): PS externalization, compared with wt TRAIL
Description: as §1, with “determinations. […]” for “determinations.”
as §2
Ramos and Jurkat T cells (clone E6-1) were cultured as described (MacFarlane et al, 2005 ibid.). The breast tumour cell line, MCF-7 (clone F43) was cultured as described previously (MacFarlane et al., 2000 J. Cell Biol. 148, 1239-1254). Cells were cultured for either 4 h (Ramos and Jurkat) or 6 h (MCF-7) with His-TRAIL (MacFarlane et al, 1997 J Biol Chem 272, 25417-25420), HGS-ETR1 or HGS-ETR2 (Human Genome Sciences), or a mutant form of His-TRAIL (MacFarlane et al, 2005 ibid.). Samples were analyzed for apoptosis, Western blotting, or TRAIL DISC activation as described (MacFarlane et al, 2005 ibid.; MacFarlane et al. 2002 Oncogene 21, 6809-6818). Mutants of His-TRAIL (residues 95-281) were generated using the Quik-Change site-directed mutagenesis kit (Stratagene, Calif.), confirmed by DNA sequencing, expressed in E. coli and purified as described (MacFarlane et al, 1997 ibid.). For siRNA targeting of TRAIL-R1/-R2, MCF-7 cells were seeded into six-well plates immediately prior to effectene-mediated RNAi transfection with either a negative control siRNA (30 nM, Ambion, #4611), or preannealed siRNA oligonucleotides for TRAIL-R1 or TRAIL-R2 (30 nM, Ambion), with the sequence and validity described (Ren et al, 2004 Mol. Biol. Cell vol 15 pp 5064-5074). After 40 h of transfection the cells were collected and total TRAIL-R1 or TRAIL-R2 levels assessed. Where indicated, RNAi transfected MCF-7 cells were either left untreated or exposed to wt-TRAIL and apoptosis assessed by the extent of Bax activation, determined using the conformation specific Bax MAb, clone 3 (Dewson et al, 2003 Oncogene vol 22 pp 2643-54).

B1: TRAIL.R1-5: 6His TRAIL 95-281 with 193Ser, 199Val, 201Arg, 213Trp and 215Asp (protein)
chain: TSEETISTVQEKQQNISPLVRERGPQRVAAHITGTRGRSNTLSSPNSKNEKALGRKINSWESSRSGHSFLSNLHLRNGELVIHEKGFYYIYSQTYFRFSEEIKEVTRNDKQMVQYIYKWTDYPDPILLMKSARNSCWSKDAEYGLYSIYQGGIFELKENDRIFVSVTNEHLIDMDHEASFFGAFLVG
modifications: biotin (site not stated) in the DISC analysis only; not biotinylated in the apoptosis assays
notes: 6His TRAIL 95-281 with 193Ser, 199Val, 201Arg, 213Trp and 215Asp
- processing of caspases-8 and -3 (Jurkat cells [1]): small amount of caspase processing
- sensitization of CLL cells to induced apoptosis by depsipeptide (primary CLL cells): sensitized CLL cells
- processing of caspase-8 and caspase-3 (Ramos cells): induced the processing
- inhibition of induced apoptosis by TRAIL-R1 blocking Ab (Jurkat cells [2]): blocked
- concentration-response of apoptosis compared with wt TRAIL (Jurkat cells [2]; 4 h, FIG. 1A): much less active than wt TRAIL
- % PS+ cells, Jurkat (Jurkat cells [2]; 4 h exposure, 500 ng ml^−, Mean ± SEM of at least three determinations): 20.0 ± 2.3%
- ability to induce apoptosis in Jurkat cells (in words) (Jurkat cells [2]): lost much of its activity; also recorded: low levels of apoptosis

B2: HGS-ETR2 (antibody, INN chains, looked up, V domains shown)
VH: EVQLVQSGGGVERPGGSLRLSCAASGFTFDDYGMSWVRQAPGKGLEWVSGINWNGGSTGYADSVKGRVTISRDNAKNSLYLQMNSLRAEDTAVYYCAKILGAGRGWYFDLWGKGTTVTVSS
VL: SSELTQDPAVSVALGQTVRITCQGDSLRSYYASWYQQKPGQAPVLVIYGKNNRPSGIPDRFSGSSSGNTASLTITGAQAEDEADYYCNSRDSSGNHVVFGGGTKLTVL
- processing of caspases-8 and -3 (Jurkat cells [1]): most potent
- sensitization of CLL cells to induced apoptosis by depsipeptide (primary CLL cells): not
- processing of caspase-8 and caspase-3 (Ramos cells): not
- inhibition of induced apoptosis by TRAIL-R1 blocking Ab (Jurkat cells [2]): not
- ability to induce apoptosis in Jurkat cells (in words) (Jurkat cells [2]): potently induced apoptosis
